Data taken from PMC11255866.
Read-outs that look alike come from different tables or passages of the source.

Legend:
Assay in all cases: fluorescence polarisation
[1] = target: U1‐70K BAD1 255–278 (human) (UniProt P08621)
[2] = target: SRSF1 RRM1 (residues 14–90), Alexa Fluor 488 labelled (human) (UniProt Q07955)
[3] = target: SRSF1 RRM1 (residues 14–90), Alexa Fluor 488 labelled (human) (UniProt Q07955); remark: listed apart in the source
[4] = target: Hyper‐phosphorylated SRSF1 (phosphorylated by Clk1), Alexa Fluor 488 labelled at T248C (human) (UniProt Q07955)
Hyper‐phosphorylated SRSF1 (phosphorylated by Clk1), Alexa Fluor 488 labelled at T248C (human), sequence (Q07955 whole entry T248C): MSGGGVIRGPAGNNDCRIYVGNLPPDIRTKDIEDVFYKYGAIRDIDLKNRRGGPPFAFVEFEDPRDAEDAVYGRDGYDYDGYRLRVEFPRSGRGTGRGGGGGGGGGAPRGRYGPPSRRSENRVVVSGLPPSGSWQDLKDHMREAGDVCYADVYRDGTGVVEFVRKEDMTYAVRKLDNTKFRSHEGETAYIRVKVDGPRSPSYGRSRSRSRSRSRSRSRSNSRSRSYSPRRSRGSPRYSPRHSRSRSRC

U1‐70K RRM (residues 64–202), sequence (P08621 64-202): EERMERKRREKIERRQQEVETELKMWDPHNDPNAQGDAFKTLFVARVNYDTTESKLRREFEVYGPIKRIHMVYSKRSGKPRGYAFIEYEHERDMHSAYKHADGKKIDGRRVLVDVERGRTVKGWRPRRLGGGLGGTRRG
U1‐70K RRM 92–202, sequence (P08621 92-202): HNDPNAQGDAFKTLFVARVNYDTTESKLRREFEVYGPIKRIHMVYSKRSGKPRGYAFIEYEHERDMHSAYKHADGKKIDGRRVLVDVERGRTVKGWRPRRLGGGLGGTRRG
U1‐70K BAD1 (residues 229–306), sequence (P08621 229-306): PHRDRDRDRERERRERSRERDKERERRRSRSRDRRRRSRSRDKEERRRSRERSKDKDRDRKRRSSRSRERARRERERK
Hyper phosphorylated SRSF1 RS (residues 199–248), unlabelled, sequence (Q07955 199-248): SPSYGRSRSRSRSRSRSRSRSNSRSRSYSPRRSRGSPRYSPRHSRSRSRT

Row | Kd [2] [µM] | Kd [3] [µM] | Substance | further results
1 | – | – | Hyper phosphorylated SRSF1 RS (residues 199–248), unlabelled (from UniProt Q07955 199-248) (domain or fragment) | Kd [1]: 2 µM
2 | 0.24 | – | U1‐70K BAD1 (residues 229–306) (from UniProt P08621 229-306) (domain or fragment) | –
3 | – | 7 | U1‐70K RRM 92–202 (from UniProt P08621 92-202) (domain or fragment) | –
4 | 3 | 6 | U1‐70K RRM (residues 64–202) (from UniProt P08621 64-202) (domain or fragment) | –
5 | – | – | U1‐70K ΔBAD2 (domain or fragment) | Kd [4]: 0.65 µM
